{
  "source": "patent US20080063657A1",
  "about": "(VAXINNATE, published 2008)",
  "binders": {"B1": {"name": "STF2.EIII+ fusion protein (other)", "chain": "MAQVINTNSLSLLTQNNLNKSQSALGTAIERLSSGLRINSAKDDAAGQAIANRFTANIKGLTQASRNANDGISIAQTTEGALNEINNNLQRVRELAVQSANSTNSQSDLDSIQAEITQRLNEIDRVSGQTQFNGVKVLAQDNTLTIQVGANDGETIDIDLKQINSQTLGLDSLNVQKAYDVKDTAVTTKAYANNGTTLDVSGLDDAAIKAATGGTNGTASVTGGAVKFDADNNKYFVTIGGFTGADAAKNGDYEVNVATDGTVTLAAGATKTTMPAGATTKTEVQELKDTPAVVSADAKNALIAGGVDATDANGAELVKMSYTDKNGKTIEGGYALKAGDKYYAADYDEATGAIKAKTTSYTAADGTTKTAANQLGGVDGKTEVVTIDGKTYNASKAAGHDFKAQPELAEAAAKTTENPLQKIDAALAQVDALRSDLGAVQNRFNSAITNLGNTVNNLSEARSRIEDSDYATEVSNMSRAQILQQAGTSVLAQANQVPQNVLSLLRKGNSKLEGQLEFPRTSMEKLQLKGTTYGVCSKAFKFLGTPADTGHGTVVLELQYTGTDGPCKVPISSVASLNDLTPVGRLVTVNPFVSVATANAKVLIELEPPFGDSYIVVGRGEQQINHHWHKSGSSIGK"}},
  "target": "TLR5 (UniProt O60602 21-858)",
  "sequence (O60602 21-858 limits assumed)": "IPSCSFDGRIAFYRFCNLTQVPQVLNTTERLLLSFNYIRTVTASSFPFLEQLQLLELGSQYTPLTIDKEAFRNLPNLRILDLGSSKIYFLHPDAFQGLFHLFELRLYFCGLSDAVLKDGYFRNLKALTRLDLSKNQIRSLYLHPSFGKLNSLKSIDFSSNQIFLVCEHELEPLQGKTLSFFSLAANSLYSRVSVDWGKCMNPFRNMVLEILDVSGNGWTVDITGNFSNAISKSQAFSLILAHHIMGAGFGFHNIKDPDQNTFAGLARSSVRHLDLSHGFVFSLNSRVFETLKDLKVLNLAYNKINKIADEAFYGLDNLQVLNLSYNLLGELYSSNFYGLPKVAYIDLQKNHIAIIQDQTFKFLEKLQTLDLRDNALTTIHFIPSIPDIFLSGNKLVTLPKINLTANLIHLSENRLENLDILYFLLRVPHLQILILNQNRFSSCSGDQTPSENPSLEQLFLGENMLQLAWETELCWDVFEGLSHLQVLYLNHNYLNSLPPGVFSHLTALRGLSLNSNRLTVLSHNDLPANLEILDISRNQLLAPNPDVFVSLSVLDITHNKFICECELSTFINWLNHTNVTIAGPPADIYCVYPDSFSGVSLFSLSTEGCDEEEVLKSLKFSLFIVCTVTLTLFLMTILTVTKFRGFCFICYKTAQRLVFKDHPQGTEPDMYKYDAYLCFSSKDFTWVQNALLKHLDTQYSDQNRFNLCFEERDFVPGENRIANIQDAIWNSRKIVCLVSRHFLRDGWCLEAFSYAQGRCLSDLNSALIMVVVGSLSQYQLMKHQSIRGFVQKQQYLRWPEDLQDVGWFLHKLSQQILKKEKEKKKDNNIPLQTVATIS",
  "test": "cell-based or functional assay",
  "data": [
    {"binder": "B1", "values": [
      {"measurement": "TLR-5 EC50 (IL-8 in supernatant of HEK293 cells, ELISA), batch 052", "value": "> 5000", "unit": "ng/mL"},
      {"measurement": "TLR-5 EC50 (IL-8 in supernatant of HEK293 cells, ELISA), batch 054", "value": 1200, "unit": "ng/mL"},
      {"measurement": "TLR-5 EC50 (IL-8 in supernatant of HEK293 cells, ELISA), batch 057", "value": 198, "unit": "ng/mL"}
    ]}
  ]
}
